Key:
[1] = target: murine κ-opioid receptor (κOR-GFP and SNAP-κOR, two differently tagged copies co-expressed) (murine) (UniProt P33534); experiment: PhotoGate single-molecule co-localisation imaging
[2] = target: murine κ-opioid receptor, split GFP pair (SNAP-κOR-GFP10 and κOR-GFP11-mKate co-expressed) (murine) (UniProt P33534); experiment: split reporter

Row | Substance | co-localization time [1] [ms] | dimeric fraction [1] [%] | fraction of receptors in yellow spots [1] [%] | yellow fraction at a density of 14 / µm^2 [1] [%] | yellow fraction at densities of > 100 / µm^2 [1] [%] | GFP-positive fraction [2] [%]
1 | murine κ-opioid receptor (κOR-GFP and SNAP-κOR, two differently tagged copies co-expressed) (from UniProt P33534 1-380) | 476 | < 100 | 33 | 10 | 46 | –
2 | murine κ-opioid receptor, split GFP pair (SNAP-κOR-GFP10 and κOR-GFP11-mKate co-expressed) (from UniProt P33534 1-380) | – | – | – | – | – | 91
